The values that follow come from publication PMC2713992 (Nature immunology, 2009).

The assay deals with complement component 3b (C3b) (human, UniProt P01024 23-667; P01024 749-1663). The experiment in a line: SPR.
Chain of complement component 3b (C3b) (P01024 23-667, chain 1 of 2): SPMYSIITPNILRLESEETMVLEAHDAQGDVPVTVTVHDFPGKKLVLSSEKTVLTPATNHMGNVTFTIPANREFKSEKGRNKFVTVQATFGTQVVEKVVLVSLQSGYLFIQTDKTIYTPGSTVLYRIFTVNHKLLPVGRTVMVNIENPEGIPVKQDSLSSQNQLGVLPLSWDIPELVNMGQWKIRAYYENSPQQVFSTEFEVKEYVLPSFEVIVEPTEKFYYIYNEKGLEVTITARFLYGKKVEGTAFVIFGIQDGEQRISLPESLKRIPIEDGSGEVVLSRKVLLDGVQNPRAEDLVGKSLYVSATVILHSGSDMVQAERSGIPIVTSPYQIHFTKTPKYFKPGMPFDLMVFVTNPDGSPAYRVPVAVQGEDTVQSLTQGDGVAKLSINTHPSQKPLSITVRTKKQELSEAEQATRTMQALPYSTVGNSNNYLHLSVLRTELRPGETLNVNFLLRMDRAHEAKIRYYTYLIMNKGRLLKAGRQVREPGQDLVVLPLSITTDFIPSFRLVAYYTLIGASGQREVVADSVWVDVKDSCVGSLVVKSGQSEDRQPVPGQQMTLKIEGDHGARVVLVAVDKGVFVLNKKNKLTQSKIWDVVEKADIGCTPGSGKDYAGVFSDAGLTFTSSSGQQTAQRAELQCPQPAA
Chain of complement component 3b (C3b) (P01024 749-1663, chain 2 of 2): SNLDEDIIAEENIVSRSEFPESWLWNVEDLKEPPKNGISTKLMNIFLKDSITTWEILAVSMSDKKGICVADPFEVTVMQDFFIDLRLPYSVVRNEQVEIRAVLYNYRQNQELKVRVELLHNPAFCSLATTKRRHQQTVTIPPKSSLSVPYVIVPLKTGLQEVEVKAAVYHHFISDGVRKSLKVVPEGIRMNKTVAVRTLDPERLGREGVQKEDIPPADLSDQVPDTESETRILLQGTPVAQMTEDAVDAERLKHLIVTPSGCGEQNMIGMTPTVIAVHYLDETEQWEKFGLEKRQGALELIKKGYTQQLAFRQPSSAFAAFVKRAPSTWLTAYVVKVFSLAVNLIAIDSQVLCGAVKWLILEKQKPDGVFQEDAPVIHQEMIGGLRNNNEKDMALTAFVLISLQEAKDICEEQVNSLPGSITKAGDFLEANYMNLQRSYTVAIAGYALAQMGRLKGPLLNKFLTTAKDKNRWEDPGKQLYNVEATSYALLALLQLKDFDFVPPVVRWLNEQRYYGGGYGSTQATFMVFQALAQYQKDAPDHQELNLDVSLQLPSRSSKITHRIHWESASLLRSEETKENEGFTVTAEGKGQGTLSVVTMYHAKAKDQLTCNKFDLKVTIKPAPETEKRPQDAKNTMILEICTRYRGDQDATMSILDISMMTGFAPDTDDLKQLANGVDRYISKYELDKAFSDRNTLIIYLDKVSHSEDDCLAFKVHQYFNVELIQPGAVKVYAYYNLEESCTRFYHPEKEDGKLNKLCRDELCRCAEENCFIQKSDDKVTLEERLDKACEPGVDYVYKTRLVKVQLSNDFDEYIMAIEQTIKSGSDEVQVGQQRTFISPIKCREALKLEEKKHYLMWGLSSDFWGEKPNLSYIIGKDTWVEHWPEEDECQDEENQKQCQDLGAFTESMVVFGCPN

B1: FH(1–4), recombinant N-terminal four CCP domains (CCP1-4, residues 1–246) of human factor H (domain or fragment, UniProt P08603 19-264, looked up)
chain: EDCNELPPRRNTEILTGSWSDQTYPEGTQAIYKCRPGYRSLGNVIMVCRKGEWVALNPLRKCQKRPCGHPGDTPFGTFTLTGGNVFEYGVKAVYTCNEGYQLLGEINYRECDTDGWTNDIPICEVVKCLPVTAPENGKIVSSAMEPDREYHFGQAVRFVCNSGYKIEGDEEMHCSDDGFWSKEKPKCVEISCKSPDVINGSPISQKIIYKENERFQYKCNMGYEYSERGDAVCTESGWRPLPSCEE
In the case of B1, binding was characterised by a dissociation constant (Kd) of 11 ± 2 µM and the “stoichiometry N” value is 1.
